According to publication PMC2665095 (The Journal of Biological Chemistry, 2009):

Key:
[1] = biological target: T1, PBS3 (AtGH3.12; His-PBS3) (Arabidopsis thaliana, UniProt Q9LYU4); test: HPLC of pABA-Glu formation; assay type: biochemical
T1 sequence (Q9LYU4 1-575): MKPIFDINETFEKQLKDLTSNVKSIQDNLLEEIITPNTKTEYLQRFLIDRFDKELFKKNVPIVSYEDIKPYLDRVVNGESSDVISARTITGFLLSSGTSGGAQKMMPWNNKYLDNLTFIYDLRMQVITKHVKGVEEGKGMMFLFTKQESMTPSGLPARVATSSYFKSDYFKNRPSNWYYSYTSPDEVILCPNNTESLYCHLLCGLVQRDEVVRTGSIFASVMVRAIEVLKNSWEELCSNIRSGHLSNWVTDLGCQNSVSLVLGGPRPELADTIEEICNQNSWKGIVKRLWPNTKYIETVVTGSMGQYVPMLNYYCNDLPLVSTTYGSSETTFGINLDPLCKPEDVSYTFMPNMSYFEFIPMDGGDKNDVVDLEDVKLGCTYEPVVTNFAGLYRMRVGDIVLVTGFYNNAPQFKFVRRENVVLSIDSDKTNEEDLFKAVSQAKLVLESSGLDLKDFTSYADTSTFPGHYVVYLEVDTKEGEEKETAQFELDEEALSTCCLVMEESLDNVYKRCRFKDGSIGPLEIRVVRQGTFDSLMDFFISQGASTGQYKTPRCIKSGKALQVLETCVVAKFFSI

[2] = biological target: T1, PBS3 (AtGH3.12; His-PBS3); test: coupled adenylation assay; assay type: biochemical; details: 150 μM pABA, 5 mM ATP, 5 mM MgCl2, pH 7.4
[3] = substrate: C=C(O[C@H]1C=CC=C(C(=O)O)[C@@H]1O)C(=O)O; test: coupled spectrophotometric assay; assay type: biochemical, Pseudomonas aeruginosa; details: modified ICS assay conditions (100 mM Tris, pH 7.7)
purified protein [4] = substrate: Nc1ncnc2c1ncn2[C@@H]1O[C@H](COP(=O)(O)OP(=O)(O)OP(=O)(O)O)[C@@H](O)[C@H]1O; test: purified protein; details: with 10 mM 4-HBA, Mg2+, pH 7.4, 30 °C
purified protein [5] = substrate: O=C(O)c1ccc(O)cc1; test: purified protein; details: 10 mM Glu, 5 mM ATP, 5 mM MgCl2, pH 8.5
purified protein [6] = substrate: Nc1ccc(C(=O)O)cc1; test: purified protein; details: 10 mM Glu, 5 mM ATP, 5 mM MgCl2, pH 8.5
purified protein [7] = substrate: O=C(O)c1ccccc1; test: purified protein; details: 10 mM Glu, 5 mM ATP, 5 mM MgCl2, pH 8.5

Which IC50 [1] does the source give for `O=C(O)c1ccccc1O` [salicylate] here?
Its IC50 is ~15 µM.

For `O=C(O)c1cc(Cl)nc(Cl)c1` [INA], which “Fractional inhibition (300 μM)” value [2] is on record?
The value was 0.70 fraction.

B1: PchB (isochorismate pyruvate lyase) (Pseudomonas aeruginosa PAO1) (protein)
chain: MKTPEDCTGLADIREAIDRIDLDIVQALGRRMDYVKAASRFKASEAAIPAPERVAAMLPERARWAEENGLDAPFVEGLFAQIIHWYIAEQIKYWRQTRGAA
B1 was tested. Which Km [3] did it give?
Its Km is 60 µM.

B2: PBS3 (AtGH3.12; His-PBS3) (Arabidopsis thaliana) (protein)
chain: MKPIFDINETFEKQLKDLTSNVKSIQDNLLEEIITPNTKTEYLQRFLIDRFDKELFKKNVPIVSYEDIKPYLDRVVNGESSDVISARTITGFLLSSGTSGGAQKMMPWNNKYLDNLTFIYDLRMQVITKHVKGVEEGKGMMFLFTKQESMTPSGLPARVATSSYFKSDYFKNRPSNWYYSYTSPDEVILCPNNTESLYCHLLCGLVQRDEVVRTGSIFASVMVRAIEVLKNSWEELCSNIRSGHLSNWVTDLGCQNSVSLVLGGPRPELADTIEEICNQNSWKGIVKRLWPNTKYIETVVTGSMGQYVPMLNYYCNDLPLVSTTYGSSETTFGINLDPLCKPEDVSYTFMPNMSYFEFIPMDGGDKNDVVDLEDVKLGCTYEPVVTNFAGLYRMRVGDIVLVTGFYNNAPQFKFVRRENVVLSIDSDKTNEEDLFKAVSQAKLVLESSGLDLKDFTSYADTSTFPGHYVVYLEVDTKEGEEKETAQFELDEEALSTCCLVMEESLDNVYKRCRFKDGSIGPLEIRVVRQGTFDSLMDFFISQGASTGQYKTPRCIKSGKALQVLETCVVAKFFSI
Which Km (purified protein [4]) does the source give for B2 here?
Its Km is 791 µM.

And the Km (purified protein [5])?
Its Km is 459 µM.

And the kcat (purified protein [5])?
The kcat was 0.339 s⁻¹.

What about the kcat/Km (purified protein [5]) of the same molecule?
Its kcat/Km is 740 M⁻¹ s⁻¹.

And the Km (purified protein [6])?
The Km was 153 µM.

And the kcat (purified protein [6])?
Its kcat is 0.0457 s⁻¹.

What about the kcat/Km (purified protein [6]) of the same molecule?
Its kcat/Km is 298 M⁻¹ s⁻¹.

And the Km (purified protein [7])?
Its Km is 867 µM.

What about the kcat (purified protein [7]) of the same molecule?
Its kcat is 0.066 s⁻¹.

What about the kcat/Km (purified protein [7]) of the same molecule?
Its kcat/Km is 76.7 M⁻¹ s⁻¹.
